The chains are these.
B1: CE115HA000 W33Y one-arm antibody (antibody, human IgG1, kappa, L234A L235A, N297A, name in Kabat numbering)
heavy: QVQLVESGGGVVQPGRSLRLSCAASGFTFSNAYMHWVRQAPGKGLEWVAQIKAKSNNYATYYAESVKGRFTISRDDSKNSLYLQMNSLKTEDTAVYYCRYVHYGAYYGVDAWGQGTTVTVSSASTKGPSVFPLAPSSKSTSGGTAALGCLVKDYFPEPVTVSWNSGALTSGVHTFPAVLQSSGLYSLSSVVTVPSSSLGTQTYICNVNHKPSNTKVDKKVEPKSCDKTHTCPPCPAPEAAGGPSVFLFPPKPKDTLMISRTPEVTCVVVDVSHEDPEVKFNWYVDGVEVHNAKTKPREEQYASTYRVVSVLTVLHQDWLNGKEYKCKVSNKALPAPIEKTISKAKGQPREPQVYTLPPSRCELTKNQVSLSCAVKGFYPSDIAVEWESNGQPENNYKTTPPVLDSDGSFFLVSKLTVDKSRWQQGNVFSCSVMHEALHNHYTQKSLSLSPDYKDDDDK
chain: EPKSSDKTHTCPPCPAPELLGGPSVFLFPPKPKDTLMISRTPEVTCVVVDVSHEDPEVKFNWYVDGVEVHNAKTKPREEQYNSTYRVVSVLTVLHQDWLNGKEYKCKVSNKALPAPIEKTISKAKGQPREPQVCTLPPSRDELTKNQVSLWCLVKGFYPSDIAVEWESNGQPENNYKTTPPVLDSDGSFFLYSKLTVDKSRWQQGNVFSCSVMHEALHNRYTQKSLSLSP
light: DIVMTQSPLSLPVTPGEPASISCRSSQSLVHSNRNTYLHWYQQKPGQAPRLLIYKVSNRFSGVPDRFSGSGSGTDFTLKISRVEAEDVGVYYCGQGTQVPYTFGQGTKLEIKRTVAAPSVFIFPPSDEQLKSGTASVVCLLNNFYPREAKVQWKVDNALQSGNSQESVTEQDSKDSTYSLSSTLTLSKADYEKHKVYACEVTHQGLSSPVTKSFNRGEC
B2: CE115HA000 Y55S one-arm antibody (antibody, human IgG1, kappa, L234A L235A, N297A, name in Kabat numbering)
heavy: QVQLVESGGGVVQPGRSLRLSCAASGFTFSNAWMHWVRQAPGKGLEWVAQIKAKSNNSATYYAESVKGRFTISRDDSKNSLYLQMNSLKTEDTAVYYCRYVHYGAYYGVDAWGQGTTVTVSSASTKGPSVFPLAPSSKSTSGGTAALGCLVKDYFPEPVTVSWNSGALTSGVHTFPAVLQSSGLYSLSSVVTVPSSSLGTQTYICNVNHKPSNTKVDKKVEPKSCDKTHTCPPCPAPEAAGGPSVFLFPPKPKDTLMISRTPEVTCVVVDVSHEDPEVKFNWYVDGVEVHNAKTKPREEQYASTYRVVSVLTVLHQDWLNGKEYKCKVSNKALPAPIEKTISKAKGQPREPQVYTLPPSRCELTKNQVSLSCAVKGFYPSDIAVEWESNGQPENNYKTTPPVLDSDGSFFLVSKLTVDKSRWQQGNVFSCSVMHEALHNHYTQKSLSLSPDYKDDDDK
chain: EPKSSDKTHTCPPCPAPELLGGPSVFLFPPKPKDTLMISRTPEVTCVVVDVSHEDPEVKFNWYVDGVEVHNAKTKPREEQYNSTYRVVSVLTVLHQDWLNGKEYKCKVSNKALPAPIEKTISKAKGQPREPQVCTLPPSRDELTKNQVSLWCLVKGFYPSDIAVEWESNGQPENNYKTTPPVLDSDGSFFLYSKLTVDKSRWQQGNVFSCSVMHEALHNRYTQKSLSLSP
light: DIVMTQSPLSLPVTPGEPASISCRSSQSLVHSNRNTYLHWYQQKPGQAPRLLIYKVSNRFSGVPDRFSGSGSGTDFTLKISRVEAEDVGVYYCGQGTQVPYTFGQGTKLEIKRTVAAPSVFIFPPSDEQLKSGTASVVCLLNNFYPREAKVQWKVDNALQSGNSQESVTEQDSKDSTYSLSSTLTLSKADYEKHKVYACEVTHQGLSSPVTKSFNRGEC
B3: CE115HA000 Y55D one-arm antibody (antibody, human IgG1, kappa, L234A L235A, N297A, name in Kabat numbering)
heavy: QVQLVESGGGVVQPGRSLRLSCAASGFTFSNAWMHWVRQAPGKGLEWVAQIKAKSNNDATYYAESVKGRFTISRDDSKNSLYLQMNSLKTEDTAVYYCRYVHYGAYYGVDAWGQGTTVTVSSASTKGPSVFPLAPSSKSTSGGTAALGCLVKDYFPEPVTVSWNSGALTSGVHTFPAVLQSSGLYSLSSVVTVPSSSLGTQTYICNVNHKPSNTKVDKKVEPKSCDKTHTCPPCPAPEAAGGPSVFLFPPKPKDTLMISRTPEVTCVVVDVSHEDPEVKFNWYVDGVEVHNAKTKPREEQYASTYRVVSVLTVLHQDWLNGKEYKCKVSNKALPAPIEKTISKAKGQPREPQVYTLPPSRCELTKNQVSLSCAVKGFYPSDIAVEWESNGQPENNYKTTPPVLDSDGSFFLVSKLTVDKSRWQQGNVFSCSVMHEALHNHYTQKSLSLSPDYKDDDDK
chain: EPKSSDKTHTCPPCPAPELLGGPSVFLFPPKPKDTLMISRTPEVTCVVVDVSHEDPEVKFNWYVDGVEVHNAKTKPREEQYNSTYRVVSVLTVLHQDWLNGKEYKCKVSNKALPAPIEKTISKAKGQPREPQVCTLPPSRDELTKNQVSLWCLVKGFYPSDIAVEWESNGQPENNYKTTPPVLDSDGSFFLYSKLTVDKSRWQQGNVFSCSVMHEALHNRYTQKSLSLSP
light: DIVMTQSPLSLPVTPGEPASISCRSSQSLVHSNRNTYLHWYQQKPGQAPRLLIYKVSNRFSGVPDRFSGSGSGTDFTLKISRVEAEDVGVYYCGQGTQVPYTFGQGTKLEIKRTVAAPSVFIFPPSDEQLKSGTASVVCLLNNFYPREAKVQWKVDNALQSGNSQESVTEQDSKDSTYSLSSTLTLSKADYEKHKVYACEVTHQGLSSPVTKSFNRGEC
B4: CE115HA000 Y58D one-arm antibody (antibody, human IgG1, kappa, L234A L235A, N297A, name in Kabat numbering)
heavy: QVQLVESGGGVVQPGRSLRLSCAASGFTFSNAWMHWVRQAPGKGLEWVAQIKAKSNNYATDYAESVKGRFTISRDDSKNSLYLQMNSLKTEDTAVYYCRYVHYGAYYGVDAWGQGTTVTVSSASTKGPSVFPLAPSSKSTSGGTAALGCLVKDYFPEPVTVSWNSGALTSGVHTFPAVLQSSGLYSLSSVVTVPSSSLGTQTYICNVNHKPSNTKVDKKVEPKSCDKTHTCPPCPAPEAAGGPSVFLFPPKPKDTLMISRTPEVTCVVVDVSHEDPEVKFNWYVDGVEVHNAKTKPREEQYASTYRVVSVLTVLHQDWLNGKEYKCKVSNKALPAPIEKTISKAKGQPREPQVYTLPPSRCELTKNQVSLSCAVKGFYPSDIAVEWESNGQPENNYKTTPPVLDSDGSFFLVSKLTVDKSRWQQGNVFSCSVMHEALHNHYTQKSLSLSPDYKDDDDK
chain: EPKSSDKTHTCPPCPAPELLGGPSVFLFPPKPKDTLMISRTPEVTCVVVDVSHEDPEVKFNWYVDGVEVHNAKTKPREEQYNSTYRVVSVLTVLHQDWLNGKEYKCKVSNKALPAPIEKTISKAKGQPREPQVCTLPPSRDELTKNQVSLWCLVKGFYPSDIAVEWESNGQPENNYKTTPPVLDSDGSFFLYSKLTVDKSRWQQGNVFSCSVMHEALHNRYTQKSLSLSP
light: DIVMTQSPLSLPVTPGEPASISCRSSQSLVHSNRNTYLHWYQQKPGQAPRLLIYKVSNRFSGVPDRFSGSGSGTDFTLKISRVEAEDVGVYYCGQGTQVPYTFGQGTKLEIKRTVAAPSVFIFPPSDEQLKSGTASVVCLLNNFYPREAKVQWKVDNALQSGNSQESVTEQDSKDSTYSLSSTLTLSKADYEKHKVYACEVTHQGLSSPVTKSFNRGEC
B5: CE115HA000 Y58A one-arm antibody (antibody, human IgG1, kappa, L234A L235A, N297A, name in Kabat numbering)
heavy: QVQLVESGGGVVQPGRSLRLSCAASGFTFSNAWMHWVRQAPGKGLEWVAQIKAKSNNYATAYAESVKGRFTISRDDSKNSLYLQMNSLKTEDTAVYYCRYVHYGAYYGVDAWGQGTTVTVSSASTKGPSVFPLAPSSKSTSGGTAALGCLVKDYFPEPVTVSWNSGALTSGVHTFPAVLQSSGLYSLSSVVTVPSSSLGTQTYICNVNHKPSNTKVDKKVEPKSCDKTHTCPPCPAPEAAGGPSVFLFPPKPKDTLMISRTPEVTCVVVDVSHEDPEVKFNWYVDGVEVHNAKTKPREEQYASTYRVVSVLTVLHQDWLNGKEYKCKVSNKALPAPIEKTISKAKGQPREPQVYTLPPSRCELTKNQVSLSCAVKGFYPSDIAVEWESNGQPENNYKTTPPVLDSDGSFFLVSKLTVDKSRWQQGNVFSCSVMHEALHNHYTQKSLSLSPDYKDDDDK
chain: EPKSSDKTHTCPPCPAPELLGGPSVFLFPPKPKDTLMISRTPEVTCVVVDVSHEDPEVKFNWYVDGVEVHNAKTKPREEQYNSTYRVVSVLTVLHQDWLNGKEYKCKVSNKALPAPIEKTISKAKGQPREPQVCTLPPSRDELTKNQVSLWCLVKGFYPSDIAVEWESNGQPENNYKTTPPVLDSDGSFFLYSKLTVDKSRWQQGNVFSCSVMHEALHNRYTQKSLSLSP
light: DIVMTQSPLSLPVTPGEPASISCRSSQSLVHSNRNTYLHWYQQKPGQAPRLLIYKVSNRFSGVPDRFSGSGSGTDFTLKISRVEAEDVGVYYCGQGTQVPYTFGQGTKLEIKRTVAAPSVFIFPPSDEQLKSGTASVVCLLNNFYPREAKVQWKVDNALQSGNSQESVTEQDSKDSTYSLSSTLTLSKADYEKHKVYACEVTHQGLSSPVTKSFNRGEC
B6: CE115HA000 Y55G one-arm antibody (antibody, human IgG1, kappa, L234A L235A, N297A, name in Kabat numbering)
heavy: QVQLVESGGGVVQPGRSLRLSCAASGFTFSNAWMHWVRQAPGKGLEWVAQIKAKSNNGATYYAESVKGRFTISRDDSKNSLYLQMNSLKTEDTAVYYCRYVHYGAYYGVDAWGQGTTVTVSSASTKGPSVFPLAPSSKSTSGGTAALGCLVKDYFPEPVTVSWNSGALTSGVHTFPAVLQSSGLYSLSSVVTVPSSSLGTQTYICNVNHKPSNTKVDKKVEPKSCDKTHTCPPCPAPEAAGGPSVFLFPPKPKDTLMISRTPEVTCVVVDVSHEDPEVKFNWYVDGVEVHNAKTKPREEQYASTYRVVSVLTVLHQDWLNGKEYKCKVSNKALPAPIEKTISKAKGQPREPQVYTLPPSRCELTKNQVSLSCAVKGFYPSDIAVEWESNGQPENNYKTTPPVLDSDGSFFLVSKLTVDKSRWQQGNVFSCSVMHEALHNHYTQKSLSLSPDYKDDDDK
chain: EPKSSDKTHTCPPCPAPELLGGPSVFLFPPKPKDTLMISRTPEVTCVVVDVSHEDPEVKFNWYVDGVEVHNAKTKPREEQYNSTYRVVSVLTVLHQDWLNGKEYKCKVSNKALPAPIEKTISKAKGQPREPQVCTLPPSRDELTKNQVSLWCLVKGFYPSDIAVEWESNGQPENNYKTTPPVLDSDGSFFLYSKLTVDKSRWQQGNVFSCSVMHEALHNRYTQKSLSLSP
light: DIVMTQSPLSLPVTPGEPASISCRSSQSLVHSNRNTYLHWYQQKPGQAPRLLIYKVSNRFSGVPDRFSGSGSGTDFTLKISRVEAEDVGVYYCGQGTQVPYTFGQGTKLEIKRTVAAPSVFIFPPSDEQLKSGTASVVCLLNNFYPREAKVQWKVDNALQSGNSQESVTEQDSKDSTYSLSSTLTLSKADYEKHKVYACEVTHQGLSSPVTKSFNRGEC

T1 sequence (P07766 23-126): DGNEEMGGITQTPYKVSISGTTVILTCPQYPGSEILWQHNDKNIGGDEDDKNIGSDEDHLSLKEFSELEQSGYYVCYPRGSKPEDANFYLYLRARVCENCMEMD

This experiment concerns the target T1, CD3 epsilon homodimer protein (UniProt P07766 23-126).
T1 construct: immobilized on Sensor chip CM4 by amine coupling; also called CD3 (CD3 epsilon)
As to the kind of experiment: SPR (Biacore T200), CD3 epsilon homodimer on CM4 chip, one-arm antibody as analyte, 25 C.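 Further: homodimer attached to the sensor surface via amine coupling, HBS-EP+ used as running buffer during binding runs.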
For B1, the “ratio of amounts bound (altered form / CE115HA000)” value was 0.66.

Consider B2, for which the “ratio of amounts bound (altered form / CE115HA000)” value was 0.26. As to B3, the “ratio of amounts bound (altered form / CE115HA000)” value amounted to 0.45. As to B4, the “ratio of amounts bound (altered form / CE115HA000)” value was found to be 0.11.

As for B5, the “ratio of amounts bound (altered form / CE115HA000)” value is 0.22.

In the case of B6, the “ratio of amounts bound (altered form / CE115HA000)” value is 0.55.
